The record followed here is US20210371517A1.

Like-named read-outs stand apart in the source and are kept apart here.

What all share (test): cell-based or functional assay
In experiment [1] the target is CD171 (L1CAM) (human) (UniProt P32004).
Experiment [2] shares this target. The source holds these as a separate data set.
A further experiment concerns the target Fas (CD95) (human) (UniProt P25445).
UniProt P25445, sequence (P25445 26-335): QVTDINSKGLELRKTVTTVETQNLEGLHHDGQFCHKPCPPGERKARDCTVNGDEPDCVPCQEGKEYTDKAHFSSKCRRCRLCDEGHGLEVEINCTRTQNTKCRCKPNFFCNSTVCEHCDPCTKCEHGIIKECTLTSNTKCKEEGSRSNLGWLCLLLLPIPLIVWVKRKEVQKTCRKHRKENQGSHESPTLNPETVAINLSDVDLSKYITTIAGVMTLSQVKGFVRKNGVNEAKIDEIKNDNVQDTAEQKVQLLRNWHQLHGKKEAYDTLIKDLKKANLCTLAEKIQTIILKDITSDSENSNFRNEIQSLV

UniProt P32004, sequence (P32004 20-1257): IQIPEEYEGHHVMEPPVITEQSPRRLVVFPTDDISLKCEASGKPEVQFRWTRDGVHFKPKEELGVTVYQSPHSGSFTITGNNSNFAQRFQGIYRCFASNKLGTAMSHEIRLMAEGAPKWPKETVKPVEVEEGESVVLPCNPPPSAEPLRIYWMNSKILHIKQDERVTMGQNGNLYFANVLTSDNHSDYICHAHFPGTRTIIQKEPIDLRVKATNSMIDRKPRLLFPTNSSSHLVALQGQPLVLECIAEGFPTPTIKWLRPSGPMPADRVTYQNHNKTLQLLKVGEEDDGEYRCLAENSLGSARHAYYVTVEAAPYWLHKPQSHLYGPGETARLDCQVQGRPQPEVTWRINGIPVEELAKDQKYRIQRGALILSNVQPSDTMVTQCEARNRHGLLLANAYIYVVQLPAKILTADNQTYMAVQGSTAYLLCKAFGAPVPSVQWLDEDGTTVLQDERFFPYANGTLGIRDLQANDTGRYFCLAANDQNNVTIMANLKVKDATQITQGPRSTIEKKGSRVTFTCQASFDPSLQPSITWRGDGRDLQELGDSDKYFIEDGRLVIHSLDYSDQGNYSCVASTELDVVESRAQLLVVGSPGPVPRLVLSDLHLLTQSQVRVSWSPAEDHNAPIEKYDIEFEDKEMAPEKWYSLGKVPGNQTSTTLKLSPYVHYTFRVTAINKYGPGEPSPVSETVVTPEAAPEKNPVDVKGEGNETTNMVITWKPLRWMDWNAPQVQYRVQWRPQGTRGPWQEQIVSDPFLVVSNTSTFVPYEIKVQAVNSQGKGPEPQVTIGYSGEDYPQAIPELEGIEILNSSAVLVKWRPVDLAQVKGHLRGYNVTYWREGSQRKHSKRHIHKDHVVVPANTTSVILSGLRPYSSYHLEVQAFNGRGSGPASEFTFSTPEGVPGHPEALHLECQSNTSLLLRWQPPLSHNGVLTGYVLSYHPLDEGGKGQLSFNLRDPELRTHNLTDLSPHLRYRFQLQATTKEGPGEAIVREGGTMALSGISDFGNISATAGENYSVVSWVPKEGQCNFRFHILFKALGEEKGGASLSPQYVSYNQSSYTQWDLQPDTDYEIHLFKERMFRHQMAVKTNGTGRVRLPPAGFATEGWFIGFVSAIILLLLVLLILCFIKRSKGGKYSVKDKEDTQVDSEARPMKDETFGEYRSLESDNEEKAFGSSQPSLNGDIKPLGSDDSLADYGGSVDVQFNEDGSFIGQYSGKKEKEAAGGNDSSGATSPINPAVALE
CE7scFv-IgG4hinge-CD28tm/cyto-4-1BB-zeta (short) CD171-specific chimeric receptor with two costimulatory domains, sequence (main): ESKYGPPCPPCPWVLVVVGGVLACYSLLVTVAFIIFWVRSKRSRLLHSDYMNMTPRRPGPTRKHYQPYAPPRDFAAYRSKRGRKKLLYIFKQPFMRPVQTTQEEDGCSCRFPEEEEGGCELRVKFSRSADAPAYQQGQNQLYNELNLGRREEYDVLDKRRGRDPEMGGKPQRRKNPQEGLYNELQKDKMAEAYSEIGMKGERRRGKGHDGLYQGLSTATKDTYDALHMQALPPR

Substance “CE7scFv-IgG4hinge-CD28tm/4-1BB-zeta (short) CD171-specific chimeric receptor” registered a % CD25+CD69+ T cells after round III of tumor cell co-culture in the experiment with CD171 (L1CAM) (human) [1] of 42%. In the experiment with CD171 (L1CAM) (human) [2], this substance had a % CD25+CD69+ T cells after round III of tumor cell co-culture of 40%; a % CD25+CD69+ T cells, stress test round I with Be2 cells of 46.8%; a % CD25+CD69+ T cells, stress test round II with Be2 cells of 47.6%; a % CD25+CD69+ T cells, stress test round III with Be2 cells of 42.1%.

For the substance “CE7scFv-IgG4hinge-CD28tm/cyto-4-1BB-zeta (short) CD171-specific chimeric receptor with two costimulatory domains”, in the experiment with CD171 (L1CAM) (human) [2], the % CD25+CD69+ T cells after round III of tumor cell co-culture came to 60%; the IL-2 secretion in Be2 co-culture, fold over 2G-CAR(SS) was found to be 5.1 fold; the TNF-α secretion in Be2 co-culture, fold over 2G-CAR(SS) stood at 2.5 fold; the cytolytic activity against Be2 targets, fold over 2G-CAR(SS) amounted to 1.3 fold. The substance also registered an induction of CD137 expression upon tumor contact, fold over 2G-CAR(SS) with CD171 (L1CAM) (human) [2] of 8.4 fold.

For “Ce7scFv-IgG4hinge-CH2-CH3-CD28tm/4-1BB-zeta (long construct) CD171-specific chimeric receptor”, in the experiment with CD171 (L1CAM) (human) [1], the % CD25+CD69+ T cells after round III of tumor cell co-culture is 66%. In the experiment with CD171 (L1CAM) (human) [2], this substance gave a % CD25+CD69+ T cells, stress test round I with Be2 cells of 79.4%; a % CD25+CD69+ T cells, stress test round II with Be2 cells of 74%; a % CD25+CD69+ T cells, stress test round III with Be2 cells of 65.7%; an IFN-γ secretion in Be2 co-culture, fold over 2G-CAR(SS) of 8.4 fold. Besides, in the experiment with CD171 (L1CAM) (human) [2], the IL-2 secretion in Be2 co-culture, fold over 2G-CAR(SS) was found to be 6.3 fold; the TNF-α secretion in Be2 co-culture, fold over 2G-CAR(SS) was found to be 6.1 fold; the percentage of cells expressing activation marker CD137, fold over CD171-CAR(SS) came to 5.7 fold; the phospho-ERK level after co-culture with CD171+ Be2 cells, fold over CD171-CAR(SS) is 3.1 fold.

In the experiment with Fas (CD95) (human), “Fas ligand (FasL, CD178) (from UniProt P48023 1-281)” came in with a T cell viability of 2G-CAR(LS) CTLs after round III following siRNA knockdown of Fas, fold increase of 1.4 fold and a T cell viability of 2G-CAR(LS) CTLs after round III following siRNA knockdown of FasL, fold increase of 1.6 fold.
